From patent publication US20140120128A1 come the findings set out here.

Common to all, as to experiment: cell-based or functional assay
Test [1] has as its target T1, human TLR9 expressed on HEK293 cells (human) (UniProt Q9NR96).
T1 sequence: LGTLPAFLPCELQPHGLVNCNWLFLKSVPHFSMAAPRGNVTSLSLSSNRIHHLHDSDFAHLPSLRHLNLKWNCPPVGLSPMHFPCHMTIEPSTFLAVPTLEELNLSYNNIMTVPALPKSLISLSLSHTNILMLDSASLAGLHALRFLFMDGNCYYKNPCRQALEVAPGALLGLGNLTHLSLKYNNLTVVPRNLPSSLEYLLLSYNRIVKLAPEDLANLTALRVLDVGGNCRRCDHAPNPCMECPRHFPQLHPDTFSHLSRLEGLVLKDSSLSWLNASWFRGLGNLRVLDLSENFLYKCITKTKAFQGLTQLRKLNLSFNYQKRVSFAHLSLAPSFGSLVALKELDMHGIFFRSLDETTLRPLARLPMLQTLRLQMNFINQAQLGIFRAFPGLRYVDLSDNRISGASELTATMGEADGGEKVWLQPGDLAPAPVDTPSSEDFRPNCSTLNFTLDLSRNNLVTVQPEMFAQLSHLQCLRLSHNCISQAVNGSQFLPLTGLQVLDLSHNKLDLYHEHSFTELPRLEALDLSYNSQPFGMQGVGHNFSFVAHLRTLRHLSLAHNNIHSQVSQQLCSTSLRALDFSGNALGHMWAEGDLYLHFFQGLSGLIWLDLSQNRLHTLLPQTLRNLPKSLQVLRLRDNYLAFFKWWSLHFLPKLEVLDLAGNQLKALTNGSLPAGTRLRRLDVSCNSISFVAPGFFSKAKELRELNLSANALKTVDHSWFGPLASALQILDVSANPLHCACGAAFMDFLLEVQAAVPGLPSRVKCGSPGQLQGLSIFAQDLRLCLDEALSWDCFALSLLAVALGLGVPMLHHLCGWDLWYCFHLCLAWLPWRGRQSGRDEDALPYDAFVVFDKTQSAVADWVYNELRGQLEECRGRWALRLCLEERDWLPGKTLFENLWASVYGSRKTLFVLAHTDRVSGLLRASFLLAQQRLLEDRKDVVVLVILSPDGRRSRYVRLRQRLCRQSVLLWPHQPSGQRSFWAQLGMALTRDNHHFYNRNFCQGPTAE

For test [2], the target named is human TLR2 expressed on HEK293 cells (human) (UniProt O60603).
Sequence of human TLR2 expressed on HEK293 cells (human) (O60603 21-784): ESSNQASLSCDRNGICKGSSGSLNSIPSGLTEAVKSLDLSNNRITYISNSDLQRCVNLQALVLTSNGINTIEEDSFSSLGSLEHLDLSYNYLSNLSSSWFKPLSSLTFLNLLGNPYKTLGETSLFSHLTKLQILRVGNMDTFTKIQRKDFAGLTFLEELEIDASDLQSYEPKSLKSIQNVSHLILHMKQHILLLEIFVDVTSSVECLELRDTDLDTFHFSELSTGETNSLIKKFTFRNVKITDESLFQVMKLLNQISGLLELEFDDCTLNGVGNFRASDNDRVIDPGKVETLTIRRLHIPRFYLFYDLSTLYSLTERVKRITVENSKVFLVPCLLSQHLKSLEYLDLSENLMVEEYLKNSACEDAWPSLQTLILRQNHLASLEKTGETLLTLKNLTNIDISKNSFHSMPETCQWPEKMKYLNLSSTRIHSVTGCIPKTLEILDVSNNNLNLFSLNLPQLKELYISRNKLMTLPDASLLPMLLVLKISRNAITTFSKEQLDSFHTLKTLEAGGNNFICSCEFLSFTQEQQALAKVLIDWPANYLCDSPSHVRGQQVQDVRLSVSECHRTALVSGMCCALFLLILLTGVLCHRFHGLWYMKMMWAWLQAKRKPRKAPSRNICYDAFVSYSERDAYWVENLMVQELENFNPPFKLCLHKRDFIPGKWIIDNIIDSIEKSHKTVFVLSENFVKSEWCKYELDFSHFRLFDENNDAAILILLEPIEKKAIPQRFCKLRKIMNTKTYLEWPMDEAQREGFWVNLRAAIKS
The target in test [3] is T2, human TLR8 expressed on HEK293 cells (human) (UniProt Q9NR97).
T2 sequence: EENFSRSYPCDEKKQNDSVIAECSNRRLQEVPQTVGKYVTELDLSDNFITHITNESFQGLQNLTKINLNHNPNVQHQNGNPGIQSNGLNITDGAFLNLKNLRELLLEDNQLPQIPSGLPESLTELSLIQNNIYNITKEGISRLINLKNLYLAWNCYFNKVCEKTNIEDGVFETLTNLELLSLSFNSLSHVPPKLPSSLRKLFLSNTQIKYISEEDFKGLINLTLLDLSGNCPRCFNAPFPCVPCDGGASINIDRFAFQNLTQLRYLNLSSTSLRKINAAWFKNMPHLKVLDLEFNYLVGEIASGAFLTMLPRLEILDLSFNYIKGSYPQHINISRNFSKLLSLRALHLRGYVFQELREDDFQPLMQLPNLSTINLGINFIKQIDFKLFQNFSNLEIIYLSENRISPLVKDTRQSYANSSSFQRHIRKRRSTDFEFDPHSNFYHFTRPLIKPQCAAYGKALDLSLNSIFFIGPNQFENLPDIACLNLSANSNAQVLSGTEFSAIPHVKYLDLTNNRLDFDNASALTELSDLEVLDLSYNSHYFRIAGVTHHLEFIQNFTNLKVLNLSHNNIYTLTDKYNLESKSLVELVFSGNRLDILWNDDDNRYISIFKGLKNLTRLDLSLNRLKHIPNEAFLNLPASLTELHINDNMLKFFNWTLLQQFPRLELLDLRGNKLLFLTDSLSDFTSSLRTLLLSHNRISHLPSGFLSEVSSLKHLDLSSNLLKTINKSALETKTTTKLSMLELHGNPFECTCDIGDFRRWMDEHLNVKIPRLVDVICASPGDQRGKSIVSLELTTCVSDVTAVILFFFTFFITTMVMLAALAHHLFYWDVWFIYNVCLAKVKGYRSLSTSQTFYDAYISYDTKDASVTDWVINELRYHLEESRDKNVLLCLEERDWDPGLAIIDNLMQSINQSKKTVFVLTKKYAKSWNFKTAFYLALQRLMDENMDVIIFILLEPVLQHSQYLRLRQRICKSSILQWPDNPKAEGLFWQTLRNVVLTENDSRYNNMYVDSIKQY

In test [4] the target is human TLR3 expressed on HEK293 cells (human) (UniProt O15455).
The target in test [5] is human TLR5 expressed on HEK293 cells (human) (UniProt O60602).
Sequence of human TLR5 expressed on HEK293 cells (human) (O60602 21-858): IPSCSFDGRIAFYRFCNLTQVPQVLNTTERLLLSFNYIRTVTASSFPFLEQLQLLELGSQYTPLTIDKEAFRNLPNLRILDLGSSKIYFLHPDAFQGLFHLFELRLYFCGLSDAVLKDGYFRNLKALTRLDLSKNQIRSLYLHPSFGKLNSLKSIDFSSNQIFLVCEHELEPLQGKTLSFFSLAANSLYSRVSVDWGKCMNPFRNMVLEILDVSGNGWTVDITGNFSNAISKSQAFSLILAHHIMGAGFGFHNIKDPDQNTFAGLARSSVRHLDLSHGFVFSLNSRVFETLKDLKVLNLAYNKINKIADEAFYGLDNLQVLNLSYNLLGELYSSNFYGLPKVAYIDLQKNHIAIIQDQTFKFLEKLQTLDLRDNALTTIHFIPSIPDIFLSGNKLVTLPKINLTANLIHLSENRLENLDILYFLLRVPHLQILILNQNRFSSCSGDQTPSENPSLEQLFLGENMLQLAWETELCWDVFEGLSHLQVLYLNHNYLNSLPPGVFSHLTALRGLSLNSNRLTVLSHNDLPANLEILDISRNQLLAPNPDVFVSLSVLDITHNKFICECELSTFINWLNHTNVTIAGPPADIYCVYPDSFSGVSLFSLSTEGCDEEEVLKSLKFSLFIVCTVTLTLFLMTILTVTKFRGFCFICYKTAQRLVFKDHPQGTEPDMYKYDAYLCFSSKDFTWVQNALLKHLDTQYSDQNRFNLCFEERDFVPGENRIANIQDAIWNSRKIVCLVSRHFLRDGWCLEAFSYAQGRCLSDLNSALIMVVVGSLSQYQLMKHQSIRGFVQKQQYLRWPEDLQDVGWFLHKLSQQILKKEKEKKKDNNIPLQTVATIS
The target in test [6] is human TLR4 (MD2-CD14) expressed on HEK293 cells (human) (UniProt O00206).
Sequence of human TLR4 (MD2-CD14) expressed on HEK293 cells (human) (O00206 24-839 limits assumed, chain 1 of 3): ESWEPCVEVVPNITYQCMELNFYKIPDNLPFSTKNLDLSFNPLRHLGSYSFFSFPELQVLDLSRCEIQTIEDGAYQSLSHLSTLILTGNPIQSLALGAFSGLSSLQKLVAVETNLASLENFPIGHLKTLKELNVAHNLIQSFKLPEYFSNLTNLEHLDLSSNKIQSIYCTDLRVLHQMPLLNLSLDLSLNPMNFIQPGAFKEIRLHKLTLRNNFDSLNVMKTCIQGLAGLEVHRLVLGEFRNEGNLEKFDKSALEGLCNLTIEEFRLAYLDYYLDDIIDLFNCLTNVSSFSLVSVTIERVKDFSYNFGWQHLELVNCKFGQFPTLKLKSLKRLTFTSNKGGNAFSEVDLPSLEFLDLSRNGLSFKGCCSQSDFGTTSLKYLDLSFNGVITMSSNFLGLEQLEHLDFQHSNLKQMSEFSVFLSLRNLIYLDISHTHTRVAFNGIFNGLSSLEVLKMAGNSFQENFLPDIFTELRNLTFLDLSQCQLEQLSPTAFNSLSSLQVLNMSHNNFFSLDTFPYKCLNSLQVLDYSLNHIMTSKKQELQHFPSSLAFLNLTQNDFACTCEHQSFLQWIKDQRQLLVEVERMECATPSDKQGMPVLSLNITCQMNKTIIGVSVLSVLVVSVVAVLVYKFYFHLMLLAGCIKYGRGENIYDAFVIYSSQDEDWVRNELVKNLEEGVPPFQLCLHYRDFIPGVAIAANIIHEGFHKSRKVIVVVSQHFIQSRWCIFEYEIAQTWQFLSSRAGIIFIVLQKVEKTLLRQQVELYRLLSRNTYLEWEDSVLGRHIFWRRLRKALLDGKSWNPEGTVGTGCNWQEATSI
Sequence of human TLR4 (MD2-CD14) expressed on HEK293 cells (human) (Q9Y6Y9 19-160 limits assumed, chain 2 of 3, further chain): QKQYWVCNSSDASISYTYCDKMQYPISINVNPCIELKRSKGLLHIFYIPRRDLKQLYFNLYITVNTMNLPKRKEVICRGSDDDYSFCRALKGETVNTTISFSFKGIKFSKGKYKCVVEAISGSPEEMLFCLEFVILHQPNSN
Sequence of human TLR4 (MD2-CD14) expressed on HEK293 cells (human) (P08571 20-345 limits assumed, chain 3 of 3, further chain): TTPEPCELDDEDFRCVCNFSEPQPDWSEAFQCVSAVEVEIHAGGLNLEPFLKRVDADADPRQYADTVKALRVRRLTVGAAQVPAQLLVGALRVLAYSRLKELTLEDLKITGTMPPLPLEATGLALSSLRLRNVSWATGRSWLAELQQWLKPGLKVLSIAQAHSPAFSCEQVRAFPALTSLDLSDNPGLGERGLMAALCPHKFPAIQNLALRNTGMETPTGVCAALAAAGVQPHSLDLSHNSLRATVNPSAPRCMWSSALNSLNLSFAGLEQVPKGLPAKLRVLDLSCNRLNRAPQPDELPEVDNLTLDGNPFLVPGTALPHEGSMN
The target of test [7] is T3, human TLR7 expressed on HEK293 cells (human) (UniProt Q9NYK1).
T3 sequence: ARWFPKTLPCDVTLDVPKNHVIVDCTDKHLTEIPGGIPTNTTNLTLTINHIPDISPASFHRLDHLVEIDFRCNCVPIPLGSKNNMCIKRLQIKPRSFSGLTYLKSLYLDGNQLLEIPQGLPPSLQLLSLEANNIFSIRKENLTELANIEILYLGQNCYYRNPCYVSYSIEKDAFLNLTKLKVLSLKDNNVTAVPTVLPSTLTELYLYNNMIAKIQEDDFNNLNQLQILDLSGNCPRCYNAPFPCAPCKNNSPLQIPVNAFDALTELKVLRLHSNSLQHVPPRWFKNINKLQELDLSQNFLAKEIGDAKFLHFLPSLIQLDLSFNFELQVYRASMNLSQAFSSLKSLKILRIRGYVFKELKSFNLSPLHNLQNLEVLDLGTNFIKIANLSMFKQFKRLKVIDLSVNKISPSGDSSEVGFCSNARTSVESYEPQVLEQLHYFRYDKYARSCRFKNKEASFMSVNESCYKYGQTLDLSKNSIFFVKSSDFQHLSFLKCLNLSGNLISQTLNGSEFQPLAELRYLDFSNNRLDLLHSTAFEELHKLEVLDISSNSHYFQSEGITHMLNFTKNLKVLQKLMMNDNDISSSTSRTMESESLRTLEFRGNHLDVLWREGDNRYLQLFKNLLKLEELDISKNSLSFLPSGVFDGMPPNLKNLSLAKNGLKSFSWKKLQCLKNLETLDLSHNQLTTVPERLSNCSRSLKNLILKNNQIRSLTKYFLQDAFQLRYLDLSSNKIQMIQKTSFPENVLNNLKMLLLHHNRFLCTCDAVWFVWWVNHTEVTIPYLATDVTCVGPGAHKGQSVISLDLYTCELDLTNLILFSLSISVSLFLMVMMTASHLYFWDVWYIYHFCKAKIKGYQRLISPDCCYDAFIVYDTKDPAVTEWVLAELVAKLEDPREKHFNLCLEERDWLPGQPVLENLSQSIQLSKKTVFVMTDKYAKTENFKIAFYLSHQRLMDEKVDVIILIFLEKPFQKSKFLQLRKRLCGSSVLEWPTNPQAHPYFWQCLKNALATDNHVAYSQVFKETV

B1: truncated YscF (protein)
chain: LKKPADDANKAVNDSIAALKDKPDNPALLADLQHSINKWSVIYNINSTIVRSMKDLMQGILQKFP
B1: the SEAP reporter expression in HEK293 cells, screening 1 in test [1] amounted to 0.079; in test [2] it was 2.02; in test [3], 0.099; in test [4], 0.097; in test [5], 0.15; in test [6], 2. The same molecule returned an SEAP reporter expression in HEK293 cells, screening 1 in test [7] of 0.091. In addition, the SEAP reporter expression in HEK293 cells, screening 2 in test [1] came out at 0.079; in test [2], 1.98; in test [3] it was 0.105; in test [4], 0.101; in test [5], 0.154; in test [6] it was 1.9. The molecule also gave an SEAP reporter expression in HEK293 cells, screening 2 in test [7] of 0.097.
